Target: E2F1-SB, DP1 (E2F1 fragment with C-terminal Small BiT, co-expressed with Dp-1) (human) (UniProt Q01094)
Assay: NanoBiT split-luciferase complementation, cells stably expressing E2F1-SB and Dp-1; relative to WT LB-Rb

Chain of E2F1-SB, DP1 (E2F1 fragment with C-terminal Small BiT, co-expressed with Dp-1) (human) (Q01094 whole entry, chain 1 of 2, the tested form may be a part): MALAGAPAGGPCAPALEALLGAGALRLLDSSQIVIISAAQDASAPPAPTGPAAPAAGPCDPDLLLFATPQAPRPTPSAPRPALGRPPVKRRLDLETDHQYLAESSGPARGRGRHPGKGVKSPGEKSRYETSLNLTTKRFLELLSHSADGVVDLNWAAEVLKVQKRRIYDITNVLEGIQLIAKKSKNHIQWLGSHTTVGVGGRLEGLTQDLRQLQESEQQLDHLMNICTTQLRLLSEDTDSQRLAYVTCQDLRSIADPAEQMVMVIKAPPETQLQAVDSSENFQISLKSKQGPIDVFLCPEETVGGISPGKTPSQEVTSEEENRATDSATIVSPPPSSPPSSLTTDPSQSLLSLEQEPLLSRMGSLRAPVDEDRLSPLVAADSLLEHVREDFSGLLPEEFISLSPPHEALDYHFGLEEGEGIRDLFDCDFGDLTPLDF
Chain of E2F1-SB, DP1 (E2F1 fragment with C-terminal Small BiT, co-expressed with Dp-1) (human) (Q14186 whole entry, chain 2 of 2, further chain, the tested form may be a part): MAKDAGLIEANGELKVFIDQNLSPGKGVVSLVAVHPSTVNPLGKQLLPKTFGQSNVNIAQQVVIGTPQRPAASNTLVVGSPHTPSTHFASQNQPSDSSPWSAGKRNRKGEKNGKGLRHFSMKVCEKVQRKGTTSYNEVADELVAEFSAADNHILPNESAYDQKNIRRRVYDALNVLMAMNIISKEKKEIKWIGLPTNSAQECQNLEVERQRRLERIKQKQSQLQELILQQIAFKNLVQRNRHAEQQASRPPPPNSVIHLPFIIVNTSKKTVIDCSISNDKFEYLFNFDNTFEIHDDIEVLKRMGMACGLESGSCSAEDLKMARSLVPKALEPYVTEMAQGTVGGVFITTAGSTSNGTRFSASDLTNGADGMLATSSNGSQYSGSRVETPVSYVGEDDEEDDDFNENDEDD

% (/wt) luciferase activity: 5.2 % (/wt)
B1: LB-Rb (379-928) R661W (protein, part only; not given: Large BiT luciferase tag, human, UniProt P06400 379-928, looked up, part only)
chain, part: MNTIQQLMMILNSASDQPSENLISYFNNCTVNPKESILKRVKDIGYIFKEKFAKAVGQGCVEIGSQRYKLGVRLYYRVMESMLKSEEERLSIQNFSKLLNDNIFHMSLLACALEVVMATYSRSTSQNLDSGTDLSFPWILNVLNLKAFDFYKVIESFIKAEGNLTREMIKHLERCEHRIMESLAWLSDSPLFDLIKQSKDREGPTDHLESACPLNLPLQNNHTAADMYLSPVRSPKKKGSTTRVNSTANAETQATSAFQTQKPLKSTSLSLFYKKVYRLAYLWLNTLCERLLSEHPELEHIIWTLFQHTLQNEYELMRDRHLDQIMMCSMYGICKVKNIDLKFKIIVTAYKDLPHAVQETFKRVLIKEEEYDSIIVFYNSVFMQRLKTNILQYASTRPPTLSPIPHIPRSPYKFPSSPLRIPGGNIYISPLKSPYKISEGLPTPTKMTPRSRILVSIGESFGTSEKFQKINQMVCNSDRVLKRSAEGSNPPKPLKKLRFDIEGSDEADGSKHLPGESKFQQKLAEMTSTRTRMQKQKMNDSMDTSNKEEK

Reference: US20220073935A1
